The target of assay [1] is T1, His-tagged PCSK9Δhelix (human, UniProt Q8NBP7 31-152; Q8NBP7 168-692).
T1 construct: Human PCSK9 M1-Q692 with an engineered TEV site, cut by TEV protease; new N-terminus of the catalytic domain is S-A168; also called His-PCSK9Δhelix; not shown: His tag
As to the kind of experiment: TR-FRET competition (PCSK9Δhelix/Ab20 assay); competitor Ab20. Background: TR-FRET usually uses a lanthanide donor and a delayed reading to cut background.

Assay [2] concerns the target T2, His-tagged, full-length PCSK9 (human, UniProt Q8NBP7 31-692).
T2 construct: secreted PCSK9 is autocatalytically cleaved into prodomain and catalytic domain + CRD (from S153), which stay associated; also called His-PCSK9; proprotein convertase subtilisin/kexin type 9; not shown: His tag
As to the kind of experiment: TR-FRET competition (PCSK9/EGF(A) assay); competitor EGF(A)-Fc.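 Note: proximity signal from anti-His APC on PCSK9 paired with anti-Fc europium on the Fc ligand, read as normalized TR-FRET ratio across compound dilutions.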

Several values for one entry are separate records, joined by “and”; a condition that tells them apart may be missing. Equal entries are not always repeated. Bridge positions count the residues as written; N and C are the ends. Square brackets hold non-standard residues; d marks the D form. Cit = NC(=O)NCCC[C@H](N)C(=O)O

In general, IC50 refers to the midpoint of a concentration-inhibition curve. The low end stands for greater potency, the high end for weaker potency.

T2 sequence (Q8NBP7 31-692 limits assumed): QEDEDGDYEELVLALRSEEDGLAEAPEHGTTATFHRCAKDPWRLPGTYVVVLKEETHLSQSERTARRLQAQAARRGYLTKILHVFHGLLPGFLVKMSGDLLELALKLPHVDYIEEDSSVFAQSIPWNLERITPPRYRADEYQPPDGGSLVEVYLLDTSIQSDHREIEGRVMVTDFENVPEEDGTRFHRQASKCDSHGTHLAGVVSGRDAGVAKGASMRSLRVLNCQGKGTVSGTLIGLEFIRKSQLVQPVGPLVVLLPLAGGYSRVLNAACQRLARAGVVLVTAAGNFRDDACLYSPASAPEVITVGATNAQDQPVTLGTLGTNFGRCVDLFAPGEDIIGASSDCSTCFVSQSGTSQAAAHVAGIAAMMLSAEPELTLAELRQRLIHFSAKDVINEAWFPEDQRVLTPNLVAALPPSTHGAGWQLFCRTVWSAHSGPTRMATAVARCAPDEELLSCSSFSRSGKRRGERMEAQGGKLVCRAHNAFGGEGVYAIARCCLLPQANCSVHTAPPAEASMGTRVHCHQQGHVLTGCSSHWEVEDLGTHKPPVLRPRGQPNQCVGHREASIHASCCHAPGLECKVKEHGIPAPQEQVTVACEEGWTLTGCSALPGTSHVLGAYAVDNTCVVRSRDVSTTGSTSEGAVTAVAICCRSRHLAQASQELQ
T1 sequence (Q8NBP7 31-152, stated change not applied, chain 1 of 2): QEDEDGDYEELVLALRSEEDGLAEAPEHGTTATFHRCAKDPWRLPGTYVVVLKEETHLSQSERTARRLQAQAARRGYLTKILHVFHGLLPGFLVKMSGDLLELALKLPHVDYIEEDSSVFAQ
T1 sequence (Q8NBP7 other isoform, or with tags, fused parts or gaps mutant, chain 2 of 2): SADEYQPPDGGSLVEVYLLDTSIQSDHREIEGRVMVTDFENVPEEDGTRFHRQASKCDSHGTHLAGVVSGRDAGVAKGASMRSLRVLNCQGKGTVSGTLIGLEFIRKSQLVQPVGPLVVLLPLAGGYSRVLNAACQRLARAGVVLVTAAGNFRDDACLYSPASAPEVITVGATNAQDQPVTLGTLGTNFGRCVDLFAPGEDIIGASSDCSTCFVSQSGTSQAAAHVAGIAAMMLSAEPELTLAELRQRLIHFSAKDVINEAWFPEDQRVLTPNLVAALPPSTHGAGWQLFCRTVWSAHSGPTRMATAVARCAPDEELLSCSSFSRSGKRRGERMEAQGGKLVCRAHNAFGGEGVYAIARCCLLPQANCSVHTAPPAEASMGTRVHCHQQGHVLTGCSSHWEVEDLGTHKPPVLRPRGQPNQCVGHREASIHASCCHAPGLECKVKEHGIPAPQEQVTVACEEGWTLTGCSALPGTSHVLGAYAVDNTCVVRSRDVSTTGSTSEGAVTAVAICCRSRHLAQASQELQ

Consider Ac-SGCRLPWNLQRIGLPC-NH2 (disulfide 3-16) [Compound 30 (Ac-SG-CRLPWNLQRIGLPC-NH2)], for which the results for the concentration for half-maximal inhibition (IC50) in assay [1] and in assay [2] were 0.95 µM and above 50 µM, respectively.

B1: Compound 22 (Ac-GSG-CWNLKRIGSQGC-NH2) (peptide)
peptide: Ac-GSGCWNLKRIGSQGC-NH2
modifications: disulfide 4-15
SMILES: CC[C@H](C)[C@@H]1NC(=O)[C@H](CCCNC(=N)N)NC(=O)[C@H](CCCCN)NC(=O)[C@H](CC(C)C)NC(=O)[C@H](CC(N)=O)NC(=O)[C@H](Cc2c[nH]c3ccccc23)NC(=O)[C@@H](NC(=O)CNC(=O)[C@H](CO)NC(=O)CNC(C)=O)CSSC[C@@H](C(N)=O)NC(=O)CNC(=O)[C@H](CCC(N)=O)NC(=O)[C@H](CO)NC(=O)CNC1=O
As to B1, the IC50 in assay [2] is 42 µM and > 50 µM.

B2: Compound 21 (Ac-CWNLKRIGSQGC-NH2) (peptide)
peptide: Ac-CWNLKRIGSQGC-NH2
modifications: disulfide 1-12
SMILES: CC[C@H](C)[C@@H]1NC(=O)[C@H](CCCNC(=N)N)NC(=O)[C@H](CCCCN)NC(=O)[C@H](CC(C)C)NC(=O)[C@H](CC(N)=O)NC(=O)[C@H](Cc2c[nH]c3ccccc23)NC(=O)[C@@H](NC(C)=O)CSSC[C@@H](C(N)=O)NC(=O)CNC(=O)[C@H](CCC(N)=O)NC(=O)[C@H](CO)NC(=O)CNC1=O
On to B2, for which the IC50 in assay [2] is above 50 µM.

B3: Compound 31 (Ac-CFIPWNLQRIGLLC-NH2) (peptide)
peptide: Ac-CFIPWNLQRIGLLC-NH2
modifications: disulfide 1-14
SMILES: CC[C@H](C)[C@@H]1NC(=O)[C@H](CCCNC(=N)N)NC(=O)[C@H](CCC(N)=O)NC(=O)[C@H](CC(C)C)NC(=O)[C@H](CC(N)=O)NC(=O)[C@H](Cc2c[nH]c3ccccc23)NC(=O)[C@@H]2CCCN2C(=O)[C@H]([C@@H](C)CC)NC(=O)[C@H](Cc2ccccc2)NC(=O)[C@@H](NC(C)=O)CSSC[C@@H](C(N)=O)NC(=O)[C@H](CC(C)C)NC(=O)[C@H](CC(C)C)NC(=O)CNC1=O
For B3, the half-maximal inhibitory concentration (IC50) in assay [1] was 2.4 µM; in assay [2], above 50 µM.

B4: Compound 36 (Ac-SG-CFIPWNLQ(Cit)IGLPC-NH2) (peptide)
peptide: Ac-SGCFIPWNLQ[Cit]IGLPC-NH2
modifications: disulfide 3-16
SMILES: CC[C@H](C)[C@@H]1NC(=O)[C@H](CCCNC(N)=O)NC(=O)[C@H](CCC(N)=O)NC(=O)[C@H](CC(C)C)NC(=O)[C@H](CC(N)=O)NC(=O)[C@H](Cc2c[nH]c3ccccc23)NC(=O)[C@@H]2CCCN2C(=O)[C@H]([C@@H](C)CC)NC(=O)[C@H](Cc2ccccc2)NC(=O)[C@@H](NC(=O)CNC(=O)[C@H](CO)NC(C)=O)CSSC[C@@H](C(N)=O)NC(=O)[C@@H]2CCCN2C(=O)[C@H](CC(C)C)NC(=O)CNC1=O
With B4, in assay [2], the 50% inhibitory concentration (IC50) was above 50 µM.

B5: Compound 64 (Ac-DCLWNLKRIGSQCEY-NH2) (peptide)
peptide: Ac-DCLWNLKRIGSQCEY-NH2
modifications: disulfide 2-13
SMILES: CC[C@H](C)[C@@H]1NC(=O)[C@H](CCCNC(=N)N)NC(=O)[C@H](CCCCN)NC(=O)[C@H](CC(C)C)NC(=O)[C@H](CC(N)=O)NC(=O)[C@H](Cc2c[nH]c3ccccc23)NC(=O)[C@H](CC(C)C)NC(=O)[C@@H](NC(=O)[C@H](CC(=O)O)NC(C)=O)CSSC[C@@H](C(=O)N[C@@H](CCC(=O)O)C(=O)N[C@@H](Cc2ccc(O)cc2)C(N)=O)NC(=O)[C@H](CCC(N)=O)NC(=O)[C@H](CO)NC(=O)CNC1=O
In the case of B5, the IC50 in assay [2] was above 50 µM.

B6: Compound 29 (Ac-SG-CFIPWNLQRIGLLC-NH2) (peptide)
peptide: Ac-SGCFIPWNLQRIGLLC-NH2
modifications: disulfide 3-16
SMILES: CC[C@H](C)[C@@H]1NC(=O)[C@H](CCCNC(=N)N)NC(=O)[C@H](CCC(N)=O)NC(=O)[C@H](CC(C)C)NC(=O)[C@H](CC(N)=O)NC(=O)[C@H](Cc2c[nH]c3ccccc23)NC(=O)[C@@H]2CCCN2C(=O)[C@H]([C@@H](C)CC)NC(=O)[C@H](Cc2ccccc2)NC(=O)[C@@H](NC(=O)CNC(=O)[C@H](CO)NC(C)=O)CSSC[C@@H](C(N)=O)NC(=O)[C@H](CC(C)C)NC(=O)[C@H](CC(C)C)NC(=O)CNC1=O
B6: the values for the IC50 in assay [1] and in assay [2] were 1.9 µM and above 50 µM, respectively.

The values above are taken from US20200283478A1 (Genentech, published 2020).
